Target: C-C chemokine receptor 5 (CCR5) (human, UniProt P51681 1-352)
Experiment: cell-based or functional assay

Chain of C-C chemokine receptor 5 (CCR5) (P51681 whole entry): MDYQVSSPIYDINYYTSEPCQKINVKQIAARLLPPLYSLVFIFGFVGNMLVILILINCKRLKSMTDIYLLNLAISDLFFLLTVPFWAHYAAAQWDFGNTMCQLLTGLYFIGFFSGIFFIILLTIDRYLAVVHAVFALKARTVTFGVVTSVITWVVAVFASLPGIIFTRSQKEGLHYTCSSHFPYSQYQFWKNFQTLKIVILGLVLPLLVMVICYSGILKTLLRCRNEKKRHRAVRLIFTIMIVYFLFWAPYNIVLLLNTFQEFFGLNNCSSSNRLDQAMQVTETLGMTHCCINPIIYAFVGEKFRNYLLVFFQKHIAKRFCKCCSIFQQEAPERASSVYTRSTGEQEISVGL

B1: Leronlimab (PRO 140) (antibody, human IgG4, kappa, V domains shown)
VH: EVQLVESGGGLVKPGGSLRLSCAASGYTFSNYWIGWVRQAPGKGLEWIGDIYPGGNYIRNNEKFKDKTTLSADTSKNTAYLQMNSLKTEDTAVYYCGSSFGSNYVFAWFTYWGQGTLVTVSS
VL: DIVMTQSPLSLPVTPGEPASISCRSSQRLLSSYGHTYLHWYLQKPGQSPQLLIYEVSNRFSGVPDRFSGSGSGTDFTLKISRVEAEDVGVYYCSQSTHVPLTFGQGTKVEIKR
inhibition of MIP-1α-induced calcium mobilization, IC50: 21.2 µg/mL | inhibition of MIP-1β-induced calcium mobilization, IC50: 39.6 µg/mL | inhibition of RANTES (CCL5)-induced calcium mobilization, IC50: 59.1 µg/mL

From patent US11045546 (CYTODYN, dated 2021)
